# Test results: US20250320269A1 (ALBERT EINSTEIN COLLEGE OF MEDICINE, published 2025)
# T1: Human B7-H3 (human, UniProt Q5ZPR3 29-461, limits assumed)
# T1 construct: also called human B7-H3 protein; CD276
# T1 sequence (looked up): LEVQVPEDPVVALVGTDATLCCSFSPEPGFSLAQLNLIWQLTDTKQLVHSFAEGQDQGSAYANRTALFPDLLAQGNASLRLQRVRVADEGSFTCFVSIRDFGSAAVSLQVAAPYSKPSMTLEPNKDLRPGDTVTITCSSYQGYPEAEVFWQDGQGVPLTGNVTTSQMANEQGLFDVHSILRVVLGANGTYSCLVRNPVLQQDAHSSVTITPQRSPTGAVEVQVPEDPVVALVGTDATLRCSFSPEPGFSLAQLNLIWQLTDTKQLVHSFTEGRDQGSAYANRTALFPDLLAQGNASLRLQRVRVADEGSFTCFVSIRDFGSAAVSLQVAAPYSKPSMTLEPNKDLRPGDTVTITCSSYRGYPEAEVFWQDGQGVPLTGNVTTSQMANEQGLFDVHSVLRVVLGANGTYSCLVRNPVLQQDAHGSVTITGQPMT
# T2: Mouse B7-H3 (mouse, UniProt Q8VE98 29-244, limits assumed)
# T2 construct: also called mouse B7-H3 protein
# T2 sequence (looked up): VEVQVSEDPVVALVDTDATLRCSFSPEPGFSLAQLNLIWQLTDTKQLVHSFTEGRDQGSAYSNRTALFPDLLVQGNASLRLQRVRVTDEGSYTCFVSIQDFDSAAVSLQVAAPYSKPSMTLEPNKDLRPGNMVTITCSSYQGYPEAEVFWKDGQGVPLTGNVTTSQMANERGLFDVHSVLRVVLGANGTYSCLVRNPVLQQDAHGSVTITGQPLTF
# What was measured:
# Human B7-H3 = target: T1, Human B7-H3; assay: surface plasmon resonance
# Mouse B7-H3 = target: T2, Mouse B7-H3; assay: surface plasmon resonance
Binder,Kd (Human B7-H3),Kd (Mouse B7-H3)
"1G5 mAb (antibody, V domains shown, Mouse hybridoma mAb, IgG3 with kappa chain) VH: QVQLQQPGAELVKPGASVKLSCKASGYTFTSYWMHWVKQRPGQGLEWIGMIHPNSGSTNYNEKFKSKATLTVDKSSSTAYMQLSSLTSEDSAVYYCARGGYFDYWGQGTTLTVSS VL: DIVMTQSQKFMSTSVGDRVSVTCKASQNVGTNVAWYQQKPGQSPKALIYSASYRYSGVPDRFTGSGSGTDFTLTISNVQSEDLAEYFCQQYNSYPYTFGGGTKLEIKR",4.86 nM,0.81 nM
"12B4 mAb (antibody, V domains shown, Mouse hybridoma mAb, IgG3 with kappa chain; also called 124; 1214) VH: QVQLQQPGAELVKPGASVKLSCKASGYTFTSYWMHWVKQRPGQGLEWIGMIHPNSGSTNYNEKFKSKATLTVDKSSSTAYMQLSSLTSEDSAVYYCARYYYGSSYAMDYWGQGTSVTVS VL: QIVLTQSPAIMSASPGEKVTITCSASSSVSYMHWFQQKPGTSPKLWIYSTSNLASGVPARFSGSGSGTSYSLTISRMEAEDAATYYCQQRSSYPYTFGGGTKLEIKR",5.62 nM,1.71 nM
"24D12 mAb (antibody, V domains shown) VH: QVQLQQPGAELVKPGASVKLSCKASGYTFTSYWMHWVKQRPGQGLEWIGMIHPNSGSTNYNEKFKSKATLTVDKSSSTAYMQLSSLTSEDSAVYYCANYYGTNVWGTGTTVTVS VL: DIVLTQSPASLAVSLGQRATISYRASKSVSTSGYSYMHWNQQKPGQPPRLLIYLVSNLESGVPARFSGSGSGTDFTLNIHPVEEEDAATYYCQHIREAYTFGRG",4.51 nM,1.76 nM
"15F9 mAb (antibody, V domains shown, Mouse hybridoma mAb, IgG3 with kappa chain) VH: QVQLQQPGAELVKPGASVKLSCKASGYTFTNYWMHWVKQRPGQGLEWIGMIHPNSGSTNYNEKFKSKATLTVDKSSSTAYMQLSSLTSEDSAVYYCARRGDGDYWGQGTTLTVSS VL: DIQMTRHPSSLSASMGERVSLTCRASQEISGYLSWLQQKPDGTIKRLIYAASTLDSGVPKRFSGSRSGSDYSLTISSLESEDFADYYCLQYASYPYTFGGGTKLEI",4.51 nM,1.76 nM
"23B2 mAb (antibody, V domains shown, Mouse hybridoma mAb, IgG1 with kappa chain; also called 231B2) VH: QVQLQQPGAELVKPGASVKLSCKASGYTFTSYWMHWVKQRPGQGLEWIGMIHPNSGSTNYNEKFKSKATLTVDKSSSTAYMQLSSLTSEDSAVYYCARESRQLDYWGQGTTLTVSS VL: QIVLTQSPAIMSASPGEKVTMTCSASSSISYMHWYQQKPGTSPKRWIYDTSKLASGVPARFSGSGSGTSYSLTISSMEAEDAATYYCHQRSSYPLTFGAGTKLELK",11.1 nM,10.2 nM
"8B12 mAb (antibody, V domains shown, Mouse hybridoma mAb, IgG3 with kappa chain; also called 8K12; 81812) VH: QVQLQQPGAELVKPGASVKMSCKASGYTFTSYWITWVKQRPGQGLEWIGDIYPGSGSTNYNEKFKSKATLTVDTSSSTAYMQLSSLTSEDSAVYYCARGGTRFSPFAYWGQGTLVTVSA VL: DVLMTQTPLSLPVSLGDQASISCRSSQSIVHSNGNTYLEWYLQKPGQSPKLLIYKVSNRFSGVPDRFSGSGSGTDFTLKISRVEAEDLGVYYCFQGSHVPWTFGGGTKLEIKR",0.32 nM,4.01 nM
